Assay results published in patent publication US20050064518A1 (PURDUE PHARMA L P, published 2005).

T1: O772P 3-repeat TM on transfected NIH/3T3 cells (human)
T1 construct: also called NIH/3T3 O772P 3-repeat
T1 chain: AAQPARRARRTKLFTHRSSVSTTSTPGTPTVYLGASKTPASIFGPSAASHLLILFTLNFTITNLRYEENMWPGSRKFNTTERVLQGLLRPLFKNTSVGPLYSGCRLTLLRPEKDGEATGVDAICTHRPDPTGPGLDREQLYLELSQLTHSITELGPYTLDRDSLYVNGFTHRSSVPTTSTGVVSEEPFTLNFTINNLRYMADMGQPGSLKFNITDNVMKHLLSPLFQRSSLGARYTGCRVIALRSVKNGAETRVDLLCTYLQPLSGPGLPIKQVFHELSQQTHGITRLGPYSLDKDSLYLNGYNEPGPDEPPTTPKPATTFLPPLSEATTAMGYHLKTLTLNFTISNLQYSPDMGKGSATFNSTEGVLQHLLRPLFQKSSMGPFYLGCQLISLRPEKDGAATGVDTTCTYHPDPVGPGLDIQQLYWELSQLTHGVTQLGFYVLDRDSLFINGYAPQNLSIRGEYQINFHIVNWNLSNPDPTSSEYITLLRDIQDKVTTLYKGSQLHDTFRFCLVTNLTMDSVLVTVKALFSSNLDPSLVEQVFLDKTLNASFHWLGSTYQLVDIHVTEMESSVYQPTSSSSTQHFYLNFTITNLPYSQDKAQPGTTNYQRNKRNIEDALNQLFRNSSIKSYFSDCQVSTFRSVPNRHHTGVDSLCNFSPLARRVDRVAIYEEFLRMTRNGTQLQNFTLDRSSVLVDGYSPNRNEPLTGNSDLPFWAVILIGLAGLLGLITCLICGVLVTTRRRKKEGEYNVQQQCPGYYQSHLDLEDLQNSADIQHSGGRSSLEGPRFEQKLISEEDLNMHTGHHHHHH

B1: OC125 (antibody)
chain 1: QVQLQESGPELVKPGASVKISCKASGYTFTDYNMHWVKQSHGKSLEWIGYIYPYNGDTGYNQKFRNKASLTVDTSSSTAYMELRSLTSEDSAVYYWARSGGFWYFDVWGQGGTTVTVSS
chain 2: DIQMTQSPAILSASPGEKVTMTCRATPSVSYMHWYQQKPGSSPKPLIYTTSNLASGVPARFSGGGSGTSYSLTVSRVEVEDAATYYCQQWSRSPPTFGAGTKLEIK
B2: O772P 3-repeat recombinant protein (other)
chain: AAQPARRARRTKLFTHRSSVSTTSTPGTPTVYLGASKTPASIFGPSAASHLLILFTLNFTITNLRYEENMWPGSRKFNTTERVLQGLLRPLFKNTSVGPLYSGCRLTLLRPEKDGEATGVDAICTHRPDPTGPGLDREQLYLELSQLTHSITELGPYTLDRDSLYVNGFTHRSSVPTTSTGVVSEEPFTLNFTINNLRYMADMGQPGSLKFNITDNVMKHLLSPLFQRSSLGARYTGCRVIALRSVKNGAETRVDLLCTYLQPLSGPGLPIKQVFHELSQQTHGITRLGPYSLDKDSLYLNGYNEPGPDEPPTTPKPATTFLPPLSEATTAMGYHLKTLTLNFTISNLQYSPDMGKGSATFNSTEGVLQHLLRPLFQKSSMGPFYLGCQLISLRPEKDGAATGVDTTCTYHPDPVGPGLDIQQLYWELSQLTHGVTQLGFYVLDRDSLFINGYAPQNLSIRGEYQINFHIVNWNLSNPDPTSSEYITLLRDIQDKVTTLYKGSQLHDTFRFCLVTNLTMDSVLVTVKALFSSNLDPSLVEQVFLDKTLNASFHWLGSTYQLVDIHVTEMESSVYQPTSSSSTQHFYLNFTITNLPYSQDKAQPGTTNYQRNKRNIEDALNQLFRNSSIKSYFSDCQVSTFRSVPNRHHTGVDSLCNFSPLARRVDRVAIYEEFLRMTRNGTQLQNFTLDRSSVLVDGYSPNRNEPLTGNSADIQHSGGRSSLEGPRFEQKLISEEDLNMHTGHHHHHH
notes: Repeats are residues 14-452 of the entry
B3: monoclonal antibody 16H9 (antibody, V domains shown)
VH: EVQLQQSGAELVKPGASVKLSCTASGFNIKDTYMHWVKQRPEQGLEWIGRIDPANGNTKYDPKFQGKATITADTSSNTAYVQLSSLTSEDTAVYYCASSDIYYGNPGGFAYWGQGTLVTVSA
VL: QIVLTQSPAIMSASLGERVTMTCTASSSVSSSYLHWYQQKPGSSPKLWIYSTSNLASGVPARFSGSGSGTSYSLTISSMEAEDAATYYCHQYHRSPFTFGSGTKLEI
notes: Murine hybridoma antibody; also called hybridoma 16H9 (ATCC PTA-5108)
B4: monoclonal antibody 776.1 (antibody, V domains shown)
VH: EVQLQQSGPELVKPGASVKISCKASGYTFTDYNIHWVKQSHGKILEWIGYIYPYNGVSDYNQNFKSKATLIVDNSSNTAYMELRSLTSEDSAVYYCARWDFGSGYYFDYWGQGTTLTVSS
VL: QIVLSQSPAILFASPGETVTMTCRASSSVIYMCWNQQKPGSSPKPWIYGTSTLASGVPTRFSGSGSGTSYSLTISRVEAEDAATYYCQQWSSNPFTFGSGTKLEI
B5: monoclonal antibody 725.1 (antibody, V domains shown)
VH: QIQLVQSGPELKKPGETVKISCKASGYSFTNYGMNWVKQAPGKGLKWMGWINAYIGEPTYADDFKGRFAFSLEASTHTAYLQINSLKSEDTATYFCASGGNSLDFWGQGTTLTVSS
VL: QIILSQSPAILSASPGEKVTMTCRASSSVSSIHWYQQKPESSPKPWIYATSNLASGVPVRFSGSGSGTSYTLTISRMEAADAATYYCQQWSIDPATFGGGTKLEI
notes: Murine hybridoma antibody; also called hybridoma 725.1 (ATCC PTA-5124)

Columns and labels:
[1] = biological target: B2; experiment: ELISA competition, plate-bound O772P 3-repeat; no competitor
Protocol: (§1) On the next day, the plates were washed with 200 μl 1×PBST (1× phosphate-buffered saline (PBS), 0.05% Tween 20) three times and blocked with 100 μl of 1×PBST containing 1% bovine serum albumin (BSA) for 2 hours at 37° C. […] After 1 hour incubation at 37° C., the plates were then washed with 1×PBST three times. For signal detection, 100 μl of HRP-conjugated sheep anti-mouse IgG (1:2000 dilution into 1×PBST+1% BSA, Amersham Biosciences) was added to each well and incubated for 1 hour at 37° C. The plates were washed again with 1×PBST three times. Finally, 100 μl¹ of a mixture of TMB substrate and H₂O₂ (1:1 ratio, KPL) was added into each well and the absorbance was measured at 405 nm with a plate reader (Molecular Devices Corp., Sunnyvale, Calif.). The assay was done in triplicate for each selected antibody and average values were calculated and presented. The percent inhibition compared to no competition was calculated for individual antibodies based on average values. Controls for blank and individual reagents were also included in each experiment.

[2] = biological target: B2; experiment: BIAcore SPR, O772P 3-repeat immobilized, mAb injected
Protocol: A […] BIAcore biosensor chip was docked into the BIAcore X instrument and activated with 55 μl of 1:1 NHS/EDC at room temperature. O772P 3-repeat region protein and BSA at 10 μg/ml in 0.05 M acetate buffer, pH 4.5, were immobilized onto the flow cell (FC) 1 and FC2 of the activated chip, respectively, at a flow rate of 5 μl/min to achieve a resonance response of 1000-2000 RU. The chip was then blocked by injection of 55 μl of ethanolamine-HCl, pH 8.5, and followed with washing 5 times with 50 mM NaOH-1 M NaCl. To measure the binding of anti-0722P mAbs to the O772P 3-repeat region immobilized to the chip, 30 μl of anti-0722P mAbs at varying concentrations in BIAcore running buffer (HBS-EP, Cat. #1001-080, BIAcore, Piscataway, N.J.) were injected over the sensor surface at a flow rate of 5 μl/min. Following completion of the injection phase, dissociation was monitored in BIAcore running buffer at the same flow rate for 360 seconds. The surface was regenerated between injections using 30 μl of 50 mM NaOH-1 M NaCl. Individual sensorgrams were analyzed using BIAevaluation.

[3] = biological target: B2; experiment: ELISA competition, plate-bound O772P 3-repeat; competitor shed CA 125/O772P
Protocol: as §1

[4] = biological target: B2; experiment: ELISA, plate-bound O772P 3-repeat
Protocol: On the next day, the plates were washed with 200 μl 1×PBST (1× phosphate-buffered saline (PBS), 0.05% Tween 20) three times and blocked with 100 μl of 1×PBST containing 1% bovine serum albumin (BSA) for 2 hours at 37° C. […] After 1 hour incubation at 37° C., the plates were then washed with 1×PBST three times. For signal detection, 100 μl of HRP (horseradish peroxidase)-conjugated sheep anti-mouse IgG (1:2000 dilution into 1×PBST+1% BSA; Amersham Biosciences) was added to each well and incubated for 1 hour at 37° C. The plates were again washed three times with 1×PBST. Finally, 100 μl¹ of a mixture of TMB (3,3′, 5,5′-tetramethylbenzidine) substrate and H₂O₂ (1:1 ratio, KPL Kirkguard Perry Laboratories) was added into each well and after a 5 minute incubation, the absorbance was measured at 405 nm with a plate reader (Molecular Devices Corp., Sunnyvale, Calif.). The assay was done in triplicate for each selected O772P hybridoma-produced antibody and data was collected and analyzed as a kinetic assay, measured over a 5 minute time period. Average values were calculated and presented. Controls for blank and individual reagents were also included in each experiment.

[5] = biological target: B2; experiment: ELISA competition, plate-bound O772P 3-repeat; competitor soluble O772P 3-repeat
Protocol: as §1

[6] = biological target: B4; experiment: ELISA competition: soluble O772P 3-repeat at 10x w/w excess against antibody binding to plate-bound O772P 3-repeat
Protocol: as §1

[7] = biological target: T2, monoclonal antibody 117.1; experiment: as above
T2 construct: Murine hybridoma antibody
Protocol: as §1

[8] = biological target: T3, monoclonal antibody 368.1; experiment: as above
T3 construct: Murine hybridoma antibody
Protocol: as §1

[9] = biological target: T4, monoclonal antibody 501.1; experiment: as above
T4 construct: Murine hybridoma antibody
Protocol: as §1

OC125 = biological target: B1; experiment: as above
Protocol: as §1

[10] = biological target: T1, O772P 3-repeat TM on transfected …; experiment: flow cytometry, NIH/3T3 cells expressing O772P 3-repeat TM; Ab 2 µg/ml
[11] = biological target: T5, CA 125/O772P on OVCAR-3 cells (human, UniProt Q8WXI7 1-14507); experiment: flow cytometry, OVCAR-3 cells; Ab 2 µg/ml
T5 construct: whole, on cells

T4 sequence (VH, as listed by the source, chain 1 of 2): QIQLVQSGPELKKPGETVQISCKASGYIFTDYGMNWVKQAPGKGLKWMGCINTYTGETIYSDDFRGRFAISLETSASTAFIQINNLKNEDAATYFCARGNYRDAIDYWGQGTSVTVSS
T4 sequence (VL, as listed by the source, chain 2 of 2): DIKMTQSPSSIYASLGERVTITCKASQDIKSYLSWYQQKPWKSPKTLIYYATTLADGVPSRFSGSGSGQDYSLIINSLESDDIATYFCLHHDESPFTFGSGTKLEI
T3 sequence (VH, as listed by the source, chain 1 of 2): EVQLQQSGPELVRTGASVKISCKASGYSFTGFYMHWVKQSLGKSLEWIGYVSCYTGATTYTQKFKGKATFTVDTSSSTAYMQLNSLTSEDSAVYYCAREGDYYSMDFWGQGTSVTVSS
T3 sequence (VL, as listed by the source, chain 2 of 2): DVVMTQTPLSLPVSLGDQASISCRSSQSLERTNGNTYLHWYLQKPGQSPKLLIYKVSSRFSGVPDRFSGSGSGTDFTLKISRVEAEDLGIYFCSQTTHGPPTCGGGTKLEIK
T2 sequence (VH, as listed by the source, chain 1 of 2): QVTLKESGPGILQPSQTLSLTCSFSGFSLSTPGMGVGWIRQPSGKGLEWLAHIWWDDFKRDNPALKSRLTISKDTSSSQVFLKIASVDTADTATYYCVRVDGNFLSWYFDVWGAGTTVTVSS
T2 sequence (VL, as listed by the source, chain 2 of 2): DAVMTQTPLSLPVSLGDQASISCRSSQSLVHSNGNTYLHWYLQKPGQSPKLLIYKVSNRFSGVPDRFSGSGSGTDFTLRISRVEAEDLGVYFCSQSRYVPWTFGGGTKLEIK

Binder	absorbance [1] [OD]	Kd [2] [nM]	absorbance w/shed CA 125/O772P competitor (25-fold w/w excess) [3] [OD]	absorbance (OD) [4] [OD]	absorbance (OD)/µg Ab [4] [OD/µg Ab]	absorbance w/O772P 3-repeat competitor (10 x w/w excess) [5] [OD]	also measured
B1	0.73	4	0.074	0.73	18	0.047	–
B2	–	–	–	–	–	–	percent inhibition of binding [6]: 96%; percent inhibition of binding [7]: 94%; percent inhibition of binding [8]: 30%; percent inhibition of binding [9]: 96%; percent inhibition of binding (OC125): 99%
B3	–	3.9	–	–	–	–	–
B4	1.18	0.4	0.977	1.18	29	0.077	% positive cells [10]: 86%; % positive cells [11]: 94%
B5	–	2.6	–	–	–	–	–
